In US20210324108A1 (Hoffmann-La Roche, published 2021):
Numbering of substitutions follows the chain as printed. Names and notes keep the numbering of the source.

B1: FAP (4B9)-CD40 Contorsbody P1AE1901 (bispecific antibody, IgG1)
chain 1: not shown
chain 2: DIQMTQSPSSLSASVGDRVTITCRSSQSLVHSNGNTFLHWYQQKPGKAPKLLIYTVSNRFSGVPSRFSGSGSGTDFTLTISSLQPEDFATYFCSQTTHVPWTFGGGTKVEIKRTVAAPSVFIFPPSDEQLKSGTASVVCLLNNFYPREAKVQWKVDNALQSGNSQESVTEQDSKDSTYSLSSTLTLSKADYEKHKVYACEVTHQGLSSPVTKSFNRGECGGGGSGGGGSDKTHTCPPCPAPEAAGGPSVFLFPPKPKDTLMISRTPEVTCVVVDVSHEDPEVKFNWYVDGVEVHNAKTKPREEQYNSTYRVVSVLTVLHQDWLNGKEYKCKVSNKALGAPIEKTISKAKGQPREPQVCTLPPSRDELTKNQVSLSCAVKGFYPSDIAVEWESNGQPENNYKTTPPVLDSDGSFFLVSKLTVDKSRWQQGNVFSCSVMHEALHNHYTQKSLSLSPGKGGGGSGGGGSEVQLLESGGGLVQPGGSLRLSCAASGYSFTGYYIHWVRQAPGKGLEWVGRVIPNAGGTSYNQKFKGRFTISVDNSKNTAYLQMNSLRAEDTAVYYCAREGIYWWGQGTTVTVSSASTKGPSVFPLAPSSKSTSGGTAALGCLVKDYFPEPVTVSWNSGALTSGVHTFPAVLQSSGLYSLSSVVTVPSSSLGTQTYICNVNHKPSNTKVDKKVEPKSCGGGGSGGGGSGGGSGGGGSEVQLLESGGGLVQPGGSLRLSCAASGFTFSSYAMSWVRQAPGKGLEWVSAIIGSGASTYYADSVKGRFTISRDNSKNTLYLQMNSLRAEDTAVYYCAKGWFGGFNYWGQGTLVTVSSASVAAPSVFIFPPSDEQLKSGTASVVCLLNNFYPREAKVQWKVDNALQSGNSQESVTEQDSKDSTYSLSSTLTLSKADYEKHKVYACEVTHQGLSSPVTKSFNRGEC
notes: 2+1 contorsbody; IgG1 Fc knob/hole, P329G LALA
B2: FAP (4B9)-CD40 Contorsbody P1AE1799 (bispecific antibody, IgG1)
chain 1: not shown
chain 2: EVQLLESGGGLVQPGGSLRLSCAASGYSFTGYYIHWVRQAPGKGLEWVGRVIPNAGGTSYNQKFKGRFTISVDNSKNTAYLQMNSLRAEDTAVYYCAREGIYWWGQGTTVTVSSASTKGPSVFPLAPSSKSTSGGTAALGCLVKDYFPEPVTVSWNSGALTSGVHTFPAVLQSSGLYSLSSVVTVPSSSLGTQTYICNVNHKPSNTKVDKKVEPKSCGGGGSGGGGSDKTHTCPPCPAPEAAGGPSVFLFPPKPKDTLMISRTPEVTCVVVDVSHEDPEVKFNWYVDGVEVHNAKTKPREEQYNSTYRVVSVLTVLHQDWLNGKEYKCKVSNKALGAPIEKTISKAKGQPREPQVCTLPPSRDELTKNQVSLSCAVKGFYPSDIAVEWESNGQPENNYKTTPPVLDSDGSFFLVSKLTVDKSRWQQGNVFSCSVMHEALHNHYTQKSLSLSPGKGGGGSGGGGSDIQMTQSPSSLSASVGDRVTITCRSSQSLVHSNGNTFLHWYQQKPGKAPKLLIYTVSNRFSGVPSRFSGSGSGTDFTLTISSLQPEDFATYFCSQTTHVPWTFGGGTKVEIKRTVAAPSVFIFPPSDEQLKSGTASVVCLLNNFYPREAKVQWKVDNALQSGNSQESVTEQDSKDSTYSLSSTLTLSKADYEKHKVYACEVTHQGLSSPVTKSFNRGECGGGGSGGGGSGGGSGGGGSEIVLTQSPGTLSLSPGERATLSCRASQSVTSSYLAWYQQKPGQAPRLLINVGSRRATGIPDRFSGSGSGTDFTLTISRLEPEDFAVYYCQQGIMLPPTFGQGTKVEIKSSASTKGPSVFPLAPSSKSTSGGTAALGCLVKDYFPEPVTVSWNSGALTSGVHTFPAVLQSSGLYSLSSVVTVPSSSLGTQTYICNVNHKPSNTKVDKKVEPKSC
notes: as for B1
B3: FAP (4B9)-CD40 Contorsbody P1AE2255 (bispecific antibody, IgG1)
chain 1: not shown
chain 2: B2 chain 2 with K144E, K210E, E592R, Q593K
notes: 2+1 contorsbody with charged residues in the CD40 Fabs; IgG1 Fc knob/hole, P329G LALA
B4: FAP (4B9)-CD40 Contorsbody P1AE1800 (bispecific antibody, IgG1)
chain 1: not shown
chain 2: DIQMTQSPSSLSASVGDRVTITCRSSQSLVHSNGNTFLHWYQQKPGKAPKLLIYTVSNRFSGVPSRFSGSGSGTDFTLTISSLQPEDFATYFCSQTTHVPWTFGGGTKVEIKRTVAAPSVFIFPPSDEQLKSGTASVVCLLNNFYPREAKVQWKVDNALQSGNSQESVTEQDSKDSTYSLSSTLTLSKADYEKHKVYACEVTHQGLSSPVTKSFNRGECGGGGSGGGGSDKTHTCPPCPAPEAAGGPSVFLFPPKPKDTLMISRTPEVTCVVVDVSHEDPEVKFNWYVDGVEVHNAKTKPREEQYNSTYRVVSVLTVLHQDWLNGKEYKCKVSNKALGAPIEKTISKAKGQPREPQVCTLPPSRDELTKNQVSLSCAVKGFYPSDIAVEWESNGQPENNYKTTPPVLDSDGSFFLVSKLTVDKSRWQQGNVFSCSVMHEALHNHYTQKSLSLSPGKGGGGSGGGGSEVQLLESGGGLVQPGGSLRLSCAASGYSFTGYYIHWVRQAPGKGLEWVGRVIPNAGGTSYNQKFKGRFTISVDNSKNTAYLQMNSLRAEDTAVYYCAREGIYWWGQGTTVTVSSASTKGPSVFPLAPSSKSTSGGTAALGCLVKDYFPEPVTVSWNSGALTSGVHTFPAVLQSSGLYSLSSVVTVPSSSLGTQTYICNVNHKPSNTKVDKKVEPKSCGGGGSGGGGSGGGSGGGGSEIVLTQSPGTLSLSPGERATLSCRASQSVTSSYLAWYQQKPGQAPRLLINVGSRRATGIPDRFSGSGSGTDFTLTISRLEPEDFAVYYCQQGIMLPPTFGQGTKVEIKSSASTKGPSVFPLAPSSKSTSGGTAALGCLVKDYFPEPVTVSWNSGALTSGVHTFPAVLQSSGLYSLSSVVTVPSSSLGTQTYICNVNHKPSNTKVDKKVEPKSC
notes: as for B1
B5: FAP (4B9)-CD40 Contorsbody P1AE2052 (bispecific antibody, IgG1)
chain 1: not shown
chain 2: B4 chain 2
notes: as for B1
B6: FAP (4B9)-CD40 Contorsbody P1AE1902 (bispecific antibody, IgG1)
chain 1: not shown
chain 2: EVQLLESGGGLVQPGGSLRLSCAASGYSFTGYYIHWVRQAPGKGLEWVGRVIPNAGGTSYNQKFKGRFTISVDNSKNTAYLQMNSLRAEDTAVYYCAREGIYWWGQGTTVTVSSASTKGPSVFPLAPSSKSTSGGTAALGCLVKDYFPEPVTVSWNSGALTSGVHTFPAVLQSSGLYSLSSVVTVPSSSLGTQTYICNVNHKPSNTKVDKKVEPKSCGGGGSGGGGSDKTHTCPPCPAPEAAGGPSVFLFPPKPKDTLMISRTPEVTCVVVDVSHEDPEVKFNWYVDGVEVHNAKTKPREEQYNSTYRVVSVLTVLHQDWLNGKEYKCKVSNKALGAPIEKTISKAKGQPREPQVCTLPPSRDELTKNQVSLSCAVKGFYPSDIAVEWESNGQPENNYKTTPPVLDSDGSFFLVSKLTVDKSRWQQGNVFSCSVMHEALHNHYTQKSLSLSPGKGGGGSGGGGSDIQMTQSPSSLSASVGDRVTITCRSSQSLVHSNGNTFLHWYQQKPGKAPKLLIYTVSNRFSGVPSRFSGSGSGTDFTLTISSLQPEDFATYFCSQTTHVPWTFGGGTKVEIKRTVAAPSVFIFPPSDEQLKSGTASVVCLLNNFYPREAKVQWKVDNALQSGNSQESVTEQDSKDSTYSLSSTLTLSKADYEKHKVYACEVTHQGLSSPVTKSFNRGECGGGGSGGGGSGGGSGGGGSEVQLLESGGGLVQPGGSLRLSCAASGFTFSSYAMSWVRQAPGKGLEWVSAIIGSGASTYYADSVKGRFTISRDNSKNTLYLQMNSLRAEDTAVYYCAKGWFGGFNYWGQGTLVTVSSASVAAPSVFIFPPSDEQLKSGTASVVCLLNNFYPREAKVQWKVDNALQSGNSQESVTEQDSKDSTYSLSSTLTLSKADYEKHKVYACEVTHQGLSSPVTKSFNRGEC
notes: as for B1

Tests used:
recombinant human FAP = biological target: T1, recombinant human FAP (human, UniProt Q12884 26-760); test: SPR, huFAP captured (anti-His), Ab analyte
T1 construct: exact construct not described; also called FAP ECD; not shown: The histidine tag (and any linker to it) implied by capture on an anti-histidine antibody
Description: Around 12000 resonance units (RU) of the capturing system (15 μg/ml anti-histidine antibody; Order Code: 28995056; GE Healthcare Bio-Sciences AB, Sweden) were coupled on a CMS chip (GE Healthcare BR-1005-30) at pH 4.5 by using an amine coupling kit supplied by the GE Healthcare. Running buffer for Immobilization was HBS-N pH 7.4 (10 mM HEPES, 150 mM NaCl, pH 7.4, GE Healthcare). For the following kinetic characterization running buffer was PBS-P pH 7.4 (20 mM phosphate buffer, 2.7 mM KCl, 137 mM NaCl, 0.05% surfactant P20). The flow cell was set to 25° C.—and the sample block set to 12° C.—and primed with running buffer twice. […] The dissociation phase was monitored for up to 720 s and triggered by switching from the sample solution to running buffer. The surface was regenerated by washing with 10 mM Glycine pH 1.5 for 60 s at a flow rate of 30 μl/min. Bulk refractive index differences were corrected by subtracting the response obtained from an anti-histidine surface. Blank injections are also subtracted (=double referencing). For calculation of KD and kinetic parameters the Langmuir 1:1 model was used.

[1] = biological target: T2, recombinant human CD40_ECD (human, UniProt P25942 21-193); test: SPR Biacore T200, huCD40 ECD analyte, apparent KD
T2 construct: also called human CD40 extra cellular domain
Description: The capacity of the bispecific constructs to bind human CD40 was assessed by surface plasmon resonance (SPR). […] Bulk refractive index differences were corrected by subtracting the response obtained from a goat anti human F(ab′)2 surface. Blank injections are also subtracted (=double referencing). For calculation of apparent KD and other kinetic parameters the Langmuir 1:1 model was used. The apparent Kd was calculated using the Biacore™ B4000 evaluation software (version 1.1).

Binder	Kd (recombinant human FAP) [nM]	koff (recombinant human FAP) [s⁻¹]	kon (recombinant human FAP) [M⁻¹ s⁻¹]	t 1/2 (recombinant human FAP) [min]	Kd [1] [nM]	koff [1] [s⁻¹]	kon [1] [M⁻¹ s⁻¹]	t 1/2 [1] [min]
B1	7.05	0.000269	38200	43	6.98	0.00692	991000	1.67
B2	4.58	0.000253	55300	45.7	15.7	0.0151	957000	0.767
B3	4.44	0.000235	52800	49.2	17.3	0.0159	918000	0.733
B4	9.07	0.000778	85700	14.8	9.43	0.0127	1.35e+06	0.917
B5	8.31	0.000296	35600	39.1	7.2	0.00681	945000	1.7
B6	5.33	0.000288	54100	40.1	18.7	0.0145	776000	0.8
